B1: Hairpin Ribozyme (parent)
chain: GUCCUCUUUCACGUGCGCGUGAAAGAGAGAAGUGAACCAGAGAAACACACGUUGUGGUAUAUUACCUGGUA

Variants of: B1
Assay: self-cleavage, relative activity (ratio to wild type); higher = more cleavage; co-transcriptional

Variant | self-cleavage
C10G A23U | 0.656
A11C A39C | 0.514
A11C A39G | 0.275
C10U G68A | 0.217
C10U G27A | 0.403
C10G A30U | 0.0991
C10G A30C | 0.168
C10G A30G | 0.143
C10G A35C | 0.726
C10G A35G | 0.656
C10U A22C | 0.631
C10G C66U | 0.347
C10G C66G | 0.189
A11C A43U | 0.163
C10G U53C | 0.59
C10G U53A | 0.663
C10U U70G | 0.698
C10A G51A | 0.695
C10U A26U | 0.624
C10A U67A | 0.0418
C10G A59U | 0.16
C10U A31G | 0.812
C10U A31U | 0.103
C10G A61U | 0.2

Variant | self-cleavage
C10G A61C | 0.255
C10A G29C | 0.16
C10A G29U | 0.0922
C10U C16A | 0.887
C10U C16G | 0.564
C10U C18G | 0.755
C10G A39U | 0.273
C10U A24C | 0.613
C10U A24G | 0.885
C10U A24U | 0.778
C10A G27U | 0.233
C10A G27A | 0.35
C10U U60G | 0.435
A11C A26C | 0.41
A11C A26U | 0.482
C10G U70G | 0.611
C10G G21A | 0.704
C10G G21U | 0.872
C10G G21C | 0.93
C10G G69A | 0.299
C10G G69U | 0.142
C10A U53G | 0.514
C10U A61C | 0.311
C10U A61G | 0.201

Variant | self-cleavage
C10A G68C | 0.114
A11C A22G | 0.966
C10U A39U | 0.334
C10U G34C | 1.02
C10G G29A | 0.0932
C10G G29C | 0.106
C10U A28U | 0.357
A11C A45U | 0.128
A11C A45C | 0.0923
C10A G69C | 0.241
C10A G69A | 0.317
C10U U14G | 0.698
C10U U14C | 0.671
C10U C12U | 0.652
C10G G32U | 0.15
C10G G13A | 0.568
A11C A49G | 0.629
A11C A49U | 0.197
A11C A61G | 0.0356
A11C A61U | 0.118
C10U A59C | 0.227
C10U A59G | 0.206
C10U G17A | 0.808
C10U G17C | 0.58

Variant | self-cleavage
C10A G34C | 0.942
C10U G25A | 0.429
C10U G29C | 0.159
C10U G29U | 0.134
C10U G19A | 0.588
C10U G19C | 0.702
A11C C16U | 0.811
C10U G13C | 0.471
C10U G13U | 0.612
C10G C50A | 0.198
C10U C66G | 0.19
C10U C66U | 0.43
C10G C48A | 0.151
C10U G69C | 0.235
A11C A64C | 0.0846
A11C A64G | 0.462
C10G A71C | 1.2
C10U U20A | 0.774
C10G U58C | 0.681
C10G C37A | 0.22
C10G C46A | 0.106
C10G A44G | 0.108
C10G A44C | 0.126
C10G A44U | 0.133

Variant | self-cleavage
C10U A41C | 1.03
C10U A41U | 0.817
C10G C16A | 0.555
C10G C16U | 0.735
C10U G42U | 0.269
C10U G42C | 0.266
C10G A28G | 0.954
C10G A28U | 0.586
C10U C65A | 0.642
C10U C65U | 0.204
C10A U63A | 0.118
C10A U33C | 0.174
C10G G51A | 0.755
C10G G51U | 0.699
C10U U63A | 0.25
C10U U63G | 0.263
C10U U33A | 0.169
A11C A36G | 1.07
A11C A36U | 0.491
C10U G21C | 0.77
C10U G21A | 0.937
C10G G56A | 0.156
C10U A11G | 0.734
C10G U60A | 0.608

Variant | self-cleavage
C10U A64C | 0.213
C10A U55A | 0.23
C10G A43G | 0.175
C10G U62C | 0.261
C10G U62A | 0.0993
C10A U58C | 0.858
C10U U67A | 0.137
C10U U67G | 0.311
C10G G17U | 0.539
C10G G17C | 0.533
C10G C65G | 0.246
A11C A41U | 1.29
A11C A41C | 1.25
C10G A64C | 0.169
A11C C46G | 0.204
A11C C46U | 0.255
C10G A24C | 0.641
C10U A49G | 0.422
C10U A49C | 0.143
C10U A71G | 0.811
A11C | 0.849
C10G A22U | 0.661
A11C A24C | 0.709
A11C A24U | 0.615

Variant | self-cleavage
C10A G21U | 0.939
C10G G27C | 0.147
C10G G27A | 0.405
C10G G54C | 0.193
C10U A30C | 0.146
C10U C46U | 0.152
A11C C38U | 0.515
A11C A28U | 0.603
C10U U62C | 0.281
A11C C18A | 0.768
C10U G51A | 0.881
C10U G51U | 0.888
C10G G34U | 1.06
C10A U20G | 0.663
C10G A36G | 0.778
C10A G56A | 0.133
C10A G56C | 0.11
C10G U67A | 0.191
C10G U67C | 0.172
C10U G32A | 0.176
C10U G32U | 0.164
C10U C37U | 0.39
C10U G40A | 0.308

Source: the RNAGym collection of RNA variant scans (doi:10.7554/elife.80360)
